Measurements published in patent publication US20150246136A1 (Bayer, published 2015).

Assays:
Experiment in all cases: cell-based or functional assay
C4.4a = molecular target: T1, C4.4a (Homo sapiens, UniProt O95274 31-326)
T1 sequence (looked up): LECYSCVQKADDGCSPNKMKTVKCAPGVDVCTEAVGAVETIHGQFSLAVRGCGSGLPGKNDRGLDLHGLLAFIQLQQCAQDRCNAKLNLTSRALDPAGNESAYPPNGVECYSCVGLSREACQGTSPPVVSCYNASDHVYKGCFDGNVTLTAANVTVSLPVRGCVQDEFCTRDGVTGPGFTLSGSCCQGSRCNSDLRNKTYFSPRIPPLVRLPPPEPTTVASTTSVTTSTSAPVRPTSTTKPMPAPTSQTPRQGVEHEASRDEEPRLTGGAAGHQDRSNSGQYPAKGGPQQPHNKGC

Carboanhydrase IX [1] = molecular target: T2, Carboanhydrase IX (Homo sapiens, UniProt Q16790 38-459)
Carboanhydrase IX [2] = molecular target: T2, Carboanhydrase IX; remark: listed apart in the source

Binder	IC50 (nM) A549: C4.4a (C4.4a) [nM]	EC50 (nM) HT29 (Carboanhydrase IX [1]) [nM]	MIAPaCa 2/CA9+ IC50 (Carboanhydrase IX [2]) [nM]	EC50 (nM) SNU-5 (Carboanhydrase IX [1]) [nM]
Example 217 (antibody, human IgG1, lambda, V domains shown, linker-toxophore on cysteine S) VH: EVQLLESGGGLVQPGGSLRLSCAASGFTFSDYQMTWIRQTPGKGLEWVSGISWNGGSTHYADSVKGRFTISRDNSKNTLYLQMNSLRAEDTAVYYCAKGDYLVYSSYYFKSWGQGTLVTVSS VL: not shown	0.053	–	–	–
Example 211 (antibody, human IgG1, lambda, V domains shown, linker-toxophore on cysteine S) VH: EVQLLESGGGLVQPGGSLRLSCAASGFTFSSAWMSWVRQAPGKGLEWVSYISSSGSTIYYADSVKGRFTISRDNSKNTLYLQMNSLRAEDTAVYYCAREGLWAFDYWGQGTLVTVSS VL: QSVLTQPPSVSGAPGQRVTISCTGSSSNIGAGYVVHWYQQLPGTAPKLLIYDNNKRPSGVPDRFSGSKSGTSASLAISGLRSEDEADYYCAAYDDSLSGPVFGGGTKLTVLG	0.076	–	–	–
Example 214 (antibody, human IgG1, lambda, V domains shown, linker-toxophore on cysteine S) VH: EVQLLESGGGLVQPGGSLRLSCAASGFTFSSAWMSWVRQAPGKGLEWVSYISSSGSTIYYADSVKGRFTISRDNSKNTLYLQMNSLRAEDTAVYYCAREGLWAFDYWGQGTLVTVSS VL: QSVLTQPPSVSGAPGQRVTISCTGSSSNIGAGYVVHWYQQLPGTAPKLLIYDNNKRPSGVPDRFSGSKSGTSASLAISGLRSEDEADYYCAAYDDSLSGPVFGGGTKLTVLG	0.04	–	–	–
Example 215 (antibody, human IgG1, lambda, V domains shown, linker-toxophore on cysteine S) VH: EVQLLESGGGLVQPGGSLRLSCAASGFTFSSAWMSWVRQAPGKGLEWVSYISSSGSTIYYADSVKGRFTISRDNSKNTLYLQMNSLRAEDTAVYYCAREGLWAFDYWGQGTLVTVSS VL: QSVLTQPPSVSGAPGQRVTISCTGSSSNIGAGYVVHWYQQLPGTAPKLLIYDNNKRPSGVPDRFSGSKSGTSASLAISGLRSEDEADYYCAAYDDSLSGPVFGGGTKLTVLG	0.046	–	–	–
Example 299 (antibody, human IgG1, kappa, V domains shown, linker-toxophore on cysteine S) VH: QVELVESGGGLVQPGGSLRLSCAASGFTFSSYGMSWVRQAPGKGLEWVSGISSLGSTTYYADSVKGRFTISRDNSKNTLYLQMNSLRAEDTAVYYCARTGSPGTFMHGDHWGQGTLVTVSS VL: DIQMTQSPSSLSASVGDRVTITCRASQDINNYLSWYQQKPGKAPKLLIYGASNLQSGVPSRFSGSGSGTDFTLTISSLQPEDFAVYYCQQYYGRPTTFGQGTKVEIKR	–	4.1	0.8	–
Example 303 (antibody, human IgG1, kappa, V domains shown, linker-toxophore on lysine NH) VH: QVELVESGGGLVQPGGSLRLSCAASGFTFSSYGMSWVRQAPGKGLEWVSGISSLGSTTYYADSVKGRFTISRDNSKNTLYLQMNSLRAEDTAVYYCARTGSPGTFMHGDHWGQGTLVTVSS VL: DIQMTQSPSSLSASVGDRVTITCRASQDINNYLSWYQQKPGKAPKLLIYGASNLQSGVPSRFSGSGSGTDFTLTISSLQPEDFAVYYCQQYYGRPTTFGQGTKVEIKR	–	2.2	0.009	3.3
Example 304 (antibody, human IgG1, kappa, V domains shown, linker-toxophore on cysteine S) VH: QVELVESGGGLVQPGGSLRLSCAASGFTFSSYGMSWVRQAPGKGLEWVSGISSLGSTTYYADSVKGRFTISRDNSKNTLYLQMNSLRAEDTAVYYCARTGSPGTFMHGDHWGQGTLVTVSS VL: DIQMTQSPSSLSASVGDRVTITCRASQDINNYLSWYQQKPGKAPKLLIYGASNLQSGVPSRFSGSGSGTDFTLTISSLQPEDFAVYYCQQYYGRPTTFGQGTKVEIKR	–	0.05	0.019	0.6
Example 305 (antibody, human IgG1, kappa, V domains shown, linker-toxophore on cysteine S) VH: QVELVESGGGLVQPGGSLRLSCAASGFTFSSYGMSWVRQAPGKGLEWVSGISSLGSTTYYADSVKGRFTISRDNSKNTLYLQMNSLRAEDTAVYYCARTGSPGTFMHGDHWGQGTLVTVSS VL: DIQMTQSPSSLSASVGDRVTITCRASQDINNYLSWYQQKPGKAPKLLIYGASNLQSGVPSRFSGSGSGTDFTLTISSLQPEDFAVYYCQQYYGRPTTFGQGTKVEIKR	–	0.9	2.6	2.2
Example 301 (antibody, human IgG1, kappa, V domains shown, linker-toxophore on cysteine S) VH: QVELVESGGGLVQPGGSLRLSCAASGFTFSSYGMSWVRQAPGKGLEWVSGISSLGSTTYYADSVKGRFTISRDNSKNTLYLQMNSLRAEDTAVYYCARTGSPGTFMHGDHWGQGTLVTVSS VL: DIQMTQSPSSLSASVGDRVTITCRASQDINNYLSWYQQKPGKAPKLLIYGASNLQSGVPSRFSGSGSGTDFTLTISSLQPEDFAVYYCQQYYGRPTTFGQGTKVEIKR	–	> 30	22	–
Example 300 (antibody, human IgG1, kappa, V domains shown, linker-toxophore on cysteine S) VH: QVELVESGGGLVQPGGSLRLSCAASGFTFSSYGMSWVRQAPGKGLEWVSGISSLGSTTYYADSVKGRFTISRDNSKNTLYLQMNSLRAEDTAVYYCARTGSPGTFMHGDHWGQGTLVTVSS VL: DIQMTQSPSSLSASVGDRVTITCRASQDINNYLSWYQQKPGKAPKLLIYGASNLQSGVPSRFSGSGSGTDFTLTISSLQPEDFAVYYCQQYYGRPTTFGQGTKVEIKR	–	5	0.3	–
Example 306 (antibody, human IgG1, kappa, V domains shown, linker-toxophore on lysine NH) VH: QVELVESGGGLVQPGGSLRLSCAASGFTFSSYGMSWVRQAPGKGLEWVSGISSLGSTTYYADSVKGRFTISRDNSKNTLYLQMNSLRAEDTAVYYCARTGSPGTFMHGDHWGQGTLVTVSS VL: DIQMTQSPSSLSASVGDRVTITCRASQDINNYLSWYQQKPGKAPKLLIYGASNLQSGVPSRFSGSGSGTDFTLTISSLQPEDFAVYYCQQYYGRPTTFGQGTKVEIKR	–	66	21	33
Example 302 (antibody, human IgG1, kappa, V domains shown, linker-toxophore on cysteine S) VH: QVELVESGGGLVQPGGSLRLSCAASGFTFSSYGMSWVRQAPGKGLEWVSGISSLGSTTYYADSVKGRFTISRDNSKNTLYLQMNSLRAEDTAVYYCARTGSPGTFMHGDHWGQGTLVTVSS VL: DIQMTQSPSSLSASVGDRVTITCRASQDINNYLSWYQQKPGKAPKLLIYGASNLQSGVPSRFSGSGSGTDFTLTISSLQPEDFAVYYCQQYYGRPTTFGQGTKVEIKR	–	> 30	3.9	–
